How the values were obtained:
Format in all cases: in vivo, rat
[1] = system: IBO-administered memory impairment and autism model; test: Y-shaped maze experiment; details: MANF-AAV-hMSC transplanted into the hippocampus of IBO rats
Experimental: (§1) Memory impairment and autism models were prepared by administering IBO to the entorhinal cortex of the rats, wherein the IBO destroys granule cells of the dentate gyrus (DG) and pyramidal cells of the hippocampus, which receive nerve signals input from the entorhinal cortex. Specifically, the rats were anesthetized with equitensin (10% ethanol containing 350 mM pentobarbital sodium, 250 mM chloral hydrate, 85 mM MgSO and 40% propylene glycol). The incisor bar of a stereotaxic device (Stoelting Co., U.S.A.) was placed 3.4 mm below the interaural line, and the injection needle angle was fixed at […] right from the center of the sagittal plane. 1.5 ul of IBO (1 mg/ml) was injected into the entorhinal cortex of the rat using the stereotaxic device. The IBO was injected into three locations of first, AP: -8.4, ML: -4.8, DV: -4.6; Second, AP; -8.4, ML: -4.8, DV: […]; Third, AP: -8.8, ML: - 3.65, DV: -3.4 (FIG. 7).
(§2) After 2-3 IBO injections, each group was randomly classified into an IBO-administrated group (negative control group), and a GFP-AAV-hMSC-administrated group (GFP-AAV) and a MANF-AAV-hMSC-administrated group […] as a control group. A rest period of one week was provided. […]

[2] = system: IBO-administered memory impairment and autism model; test: Passive avoidance test; details: MANF-AAV-hMSC transplanted into the hippocampus of IBO rats
Experimental: as §1, with “7). […]” for “7).”
It was performed according to the method described in Heo Het al. (2009) for the same number of rats as in each group of Example 6-1. […] Exactly 24 hours after the adaptation training, the rats were placed in the bright room again, and the latency time to enter the dark room was measured for 720 seconds (confinement experiment).

[3] = system: IBO-administered memory impairment and autism model; test: Open space behavior test (anxiety behavior)
Experimental: as §1, §2

[4] = system: hippocampus of IBO-administered memory impairment and autism model; test: Immunohistochemical analysis of brain tissue (BrdU, SOX2, DCX, NeuN, GAD67, CNPase); details: brain tissue after behavioral experiment
Experimental: The brain tissue stored in the same method as the immunostaining of Example 9-1 was washed twice with PBS, permeated in 0.5% Triton X-100 for 20 minutes, and cultured in 2N HCl at 37° C. for 30 minutes. Thereafter, blocking was performed in 15% standard serum, 3% bovine serum albumin (bio-WORLD, Dublin, OH, USA) and 0.1% Triton X-100 in a free-floating state for 2 hours. The tissue was doubly stained at 4° C. for 16 hours using BrdU (abcam, 1:700) antibody, SOX2 (R&D system, MAB2018, 1:2000), DCX (Santacruz, sc8066, 1:1000), NeuN (Millipore, MAB377B, 1:700), CNPase (Abcam, ab6319, 1:700), vGluT1 (Millipore, MAB5502, 1:700), GAD67 (Millipore, MAB5406, 1:2000) as primary antibodies. As secondary antibodies, mo-Alexa 488 (Invitrogen, A21202, 1:700), mo-Cy3 (Jackson lab, 715-165-151, 1:500), rb-Alexa 488 (Jackson lab, 711-546-152, 1:700), rat-Alexa 488 (Abcam, ab6326, 1:700), etc. were used. Immunostained tissues were scanned with a confocal microscope (LSM510, LSM800 Carl Zeiss, Oberkochen, Germany).
The number of differentiation markers in the hippocampus of each experimental animal was shown by counting the number of DAPI-labeled cells in the double and triple photographed slides and counting the number of each cells labeled by fluorescently labeling each differentiation marker, NeuN, CNPase, GAD and vGluT1. Here was counted the number of cells labeled with the secondary antibody that is precisely matched in shape and location and has the shape of a cell.

B1: MANF: one of 16 or more growth factors secreted into nerve stem cells by cerebrovascular cells; amino acid sequence of SEQ ID NO: 1 (protein)
chain: MRRMWATQGLAVALALSVLPGSRALRPGDCEVCISYLGRFYQDLKDRDVTFSPATIENELIKFCREARGKENRLCYYIGATDDAATKIINEVSKPLAHHIPVEKICEKLKKKDSQICELKYDKQIDLSTVDLKKLRVKELKKILDDWGETCKGCAEKSDYIRKINELMPKYAPKAASARTDL
modifications: MANF
memory ability in Y-shaped maze test [1]: memory improvement
memory ability in passive avoidance test [2]: memory improvement
time in the center ([3]; compared to the IBO group): significantly increased
time in the center ([3]; compared to the MSC group): also increased
differentiation of newly proliferated (BrdU stained) neural progenitor cells into GABAergic nerve cells (GAD) [4]: increased
differentiation of newly proliferated (BrdU stained) neural progenitor cells into mature nerve cells (NeuN) [4]: increased
differentiation of newly proliferated (BrdU stained) neural progenitor cells into oligodendrocytes (CNPase) [4]: increased
migration (DCX) of neural stem cells (Sox2+) ([4]; MANF-AAV-hMSC transplanted): promoted
proliferation (BrdU+, Ki67) of neural stem cells (Sox2+) ([4]; MANF-AAV-hMSC transplanted): promoted
